Assay results reported in the nanobody polyreactivity screen of Harvey et al. (2022).

Assay: yeast display, Sf9 membrane polyspecificity reagent, FACS + sequencing; frameworks hold sequencing errors
Method in brief: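 Genes from sorted yeast were amplified by colony PCR, read by MiSeq 2 × 250 sequencing and filtered on CDR length. These cells carried a synthetic nanobody library in Saccharomyces cerevisiae BJ5465 and were sorted by FACS into low and high (top ~1%) gates on anti-HA and streptavidin fluorescence. Polyreactivity is labelled according to the gate of origin.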

Sequence: QVQLVESGGGLVQAGGSLRLSCAASGRIFENNAMGWYRQAPGKERELVAAITSSGGRTYYADSVKGRFTISRDNAKNTVYLQMNSLIPEDTAVYYCNAYQYYERYDTYLFRYDYWGQGTQVTVSS
- polyreactivity (PSR sort gate): low polyreactivity

Sequence: QVQLVESGGGLVQAGGSLRLSCAASGRIFESYAMGWYRQAPGKERELVAAISRSGGSTYYADSVKGRFTISRDNAKNTVYLQMNSLKPEDTAVYYCNTYYYHHYDYWGQGTQVTVSS
- polyreactivity (PSR sort gate): high polyreactivity

Sequence: QVQLVESGGGLVQAGGSLRLSCAASGRIFEYYAMGWYRQAPGKERELVAAINTGGNTYYADSVKGRFTISRDNAKNTVYLLMNSLKPEDTAVYYCATYPIWYGGYLSGTDYDYWGQGTQVTVSS
- polyreactivity (PSR sort gate): low polyreactivity

Sequence: QVQLVESGGGLVQAGGSLRLSCAASGRIFEYYVMGWYRQAPGKERELVAAINRRGTSTYYADSVKGRFTISRDNAKNTVDLQMNSLKPEDTAVYYCAAVDRDYARTTTYDYCGQGTQVTVSS
- polyreactivity (PSR sort gate): high polyreactivity

Sequence: QVQLVESGGGLVQAGGSLRLSCAASGRIFFGNAMGWYRLAPGKEREFVAAITWRGGNTYYADSVKGRFTISRDNAKNTVYLQMNSLKPEDTAVYDCNASPSEVRRRYDYWGQGTQVTVSS
- polyreactivity (PSR sort gate): high polyreactivity

Sequence: QVQLVESGGGLVQAGGSLRLSCAASGRIFFGYAMGWYRPAPGKEREFVAAINWIGGRTYYAASVKGRFTISRDNAKNTVYLQMNSLKPEDTAVYYCAKEVSPYWTFDYWGQGTQVTVSS
- polyreactivity (PSR sort gate): low polyreactivity

Sequence: QVQLVESGGGLVQAGGSLRLSCAASGRIFFGYAMGWYRPAPGKERVLVAAISSRGGSTYYADSVKGRFTISRDNAKNTVYLKMNSLKPEDTAVYYCARKRYKRSTRTEFGYWGQGTQVTVSS
- polyreactivity (PSR sort gate): high polyreactivity

Sequence: QVQLVESGGGLVQAGGSLRLSCAASGRIFFGYAMGWYRQAPGKEREFVAAINWIGGRTYYADSVKGRFTISRDNAKNTVYLQMNSLKPEDTAVYYCAKEVSPYWTFDYWGQGSQVTVSS
- polyreactivity (PSR sort gate): low polyreactivity

Sequence: QVQLVESGGGLVQAGGSLRLSCAASGRIFFGYAMGWYRQAPGKEREFVAAITRRGGSTYYADSVKGRFTISRDNAKNTVYLQMNSLKPEDTADYYCAKDTIGGASPHYYWGQGTQVTVSS
- polyreactivity (PSR sort gate): high polyreactivity

Sequence: QVQLVESGGGLVQAGGSLRLSCAASGRIFFIYAMGWYRQAPGKERELVAAISYDSGSTYYADSVKGRFTISRDNAKNTVYLQMNSLKPEDTAVYYCAAEWGLVIYSTYGYDYWGQGTQVTVSS
- polyreactivity (PSR sort gate): low polyreactivity

Sequence: QVQLVESGGGLVQAGGSLRLSCAASGRIFFIYPMGWYRQAPGKERELVAGINRTGGSTYYADSVKGRFTISRDNAKNTVYLQMNSLKPEDTAVYYCAAVSYYASDYRYDYWGQGTQVTVSS
- polyreactivity (PSR sort gate): low polyreactivity

Sequence: QVQLVESGGGLVQAGGSLRLSCAASGRIFFLNTMGWYRQAPGKERELVAAITRGGSTYYADSVKGRFTISRDNAKNTVYLHMNSLKPEDTAVYYCAADVYGGIGYDYWGQGTQVTVSS
- polyreactivity (PSR sort gate): low polyreactivity

Sequence: QVQLVESGGGLVQAGGSLRLSCAASGRIFFLNTMGWYRQAPGTERELVAAITRGGSTYYADSVKGRFTISRDNAKNTVYLQMNSLKPEDTAVYYCAADVYGGIGYDYWGQGTQVTVSS
- polyreactivity (PSR sort gate): low polyreactivity

Sequence: QVQLVESGGGLVQAGGSLRLSCAASGRIFFRNALGWYRQAPGKERELVAVINTGGSTNYADSVKGRFTISRDNAKNTVYLQMNSLTPEDTAVYYCAVDRASRRTYNQYGYWGQGTQVTVSS
- polyreactivity (PSR sort gate): high polyreactivity

Sequence: QVQLVESGGGLVQAGGSLRLSCAASGRIFFSYAMGWYRQAPGKERELVAAISRSGGRTYYADSVKGRFTISRDNAKNTVYLQMNSLKPEDTAVYYCAASSISSLYYDYWGQGTQVTVSS
- polyreactivity (PSR sort gate): high polyreactivity

Sequence: QVQLVESGGGLVQAGGSLRLSCAASGRIFFVNAMGWSRQAPGKERELVAAISRGGSTNYADSVKGRFTISRDNAKNTVYLQMNSLKPEDTAVYYCNADGSSYWYPVPLDGGDYWGQGTQVTVSS
- polyreactivity (PSR sort gate): low polyreactivity

Sequence: QVQLVESGGGLVQAGGSLRLSCAASGRIFFYNVMGWYRQAHGKERELVAAITTIGGSTYYADSVKGRFTISRDNAMNTVYLQMNSLKPEDTAVYYCAAGWVTNSDGMDYWGQGTQVTVSS
- polyreactivity (PSR sort gate): low polyreactivity

Sequence: QVQLVESGGGLVQAGGSLRLSCAASGRIFFYNVMGWYRQAPGKERELVAAITTIGGSTYYADSVKGRFTISRDNAKNTVYLQMNSLKPEDTAVYYCAAGWVTNSDGMDYWGQGTQVTVSS
- polyreactivity (PSR sort gate): low polyreactivity

Sequence: QVQLVESGGGLVQAGGSLRLSCAASGRIFFYYAMGWYRQAPGKERELVAAISKSGGRTYYADSVKGRFTISRDNAKNTVYLQMNSLKPEDTAVYYCAAYSAHDSDYWGQGTQVTVSS
- polyreactivity (PSR sort gate): high polyreactivity

Sequence: QVQLVESGGGLVQAGGSLRLSCAASGRIFFYYAMGWYRQAPGKERELVATITASGDSTYYADSVKGRFTISRDNAMDTVYLQMNSLKPEDTAVYYCAADDGDYYEVDYWGQGTQVTVSS
- polyreactivity (PSR sort gate): low polyreactivity

Sequence: QVQLVESGGGLVQAGGSLRLSCAASGRIFFYYVMGWYRQAPGKERELVAAITRSGGSTYYADSVKGRFTISRDNAKNTVYLQMNSLKPEDTAVYYCAVGDGFEYDWGQGTQVTVSS
- polyreactivity (PSR sort gate): low polyreactivity
